# Measurements from the supplement of paper PMC7125110.
# ± gives the standard error. For some assays here: This sample holds only a part of the variants without activity.
# B1: glmS ribozyme (parent)
# chain: AUAAAAGCGCCAGAACUACAGAAAUGUAGUUGACGAGGAGGAGGUUUAUCGAAUUUUCGGCGGAUGCCUCCAAA
# Legend:
# Settings in all cases: with glucosamine-6-phosphate
# glucosamine-6-phosphate [1] = variants of: B1; assay: kcat; higher = faster cleavage; RNA array
# Method in brief: (§1)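 Barcoded ribozyme variants, transcribed in situ by E. coli RNA polymerase on sequenced MiSeq chips, were followed via a hybridised Cy3 probe at 37 °C. Glucosamine-6-phosphate ranged from 40 μM to 10 mM in HEPES/KCl/Mg(OAc)2 buffer. kobs came from decay fits to per-tile medians, and kcat and KM from weighted Michaelis–Menten fits.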
# glucosamine-6-phosphate [2] = variants of: B1; assay: KM; higher = weaker cofactor use; RNA array
# Method in brief: as §1
# glucosamine-6-phosphate [3] = variants of: B1; assay: self-cleavage kobs at 160 uM GlcN6P; higher = faster cleavage; RNA array
# Method in brief: as §1
# glucosamine-6-phosphate [4] = variants of: B1; assay: self-cleavage kobs at 640 uM GlcN6P; higher = faster cleavage; RNA array
# Method in brief: as §1
# glucosamine-6-phosphate [5] = variants of: B1; assay: self-cleavage kobs at 2500 uM GlcN6P; higher = faster cleavage; RNA array
# Method in brief: as §1
# glucosamine-6-phosphate [6] = variants of: B1; assay: self-cleavage kobs at 10000 uM GlcN6P; higher = faster cleavage; RNA array
# Method in brief: as §1
# glucosamine-6-phosphate [7] = variants of: B1; assay: self-cleavage kobs at 40 uM GlcN6P; higher = faster cleavage; RNA array
# Method in brief: as §1
Variant,kcat (glucosamine-6-phosphate [1]),KM (glucosamine-6-phosphate [2]),self-cleavage kobs at 160 uM GlcN6P (glucosamine-6-phosphate [3]),self-cleavage kobs at 640 uM GlcN6P (glucosamine-6-phosphate [4]),self-cleavage kobs at 2500 uM GlcN6P (glucosamine-6-phosphate [5]),self-cleavage kobs at 10000 uM GlcN6P (glucosamine-6-phosphate [6]),self-cleavage kobs at 40 uM GlcN6P (glucosamine-6-phosphate [7])
G44A,0.00053 ± 6.3e-05 s⁻¹,1820 ± 420 µM,3.7e-05 ± 2.4e-06 s⁻¹,0.000135 ± 3e-06 s⁻¹,0.000389 ± 1e-05 s⁻¹,0.000426 ± 8.1e-06 s⁻¹,
G44U,0.000429 ± 5.3e-05 s⁻¹,2040 ± 470 µM,2.34e-05 ± 1.7e-06 s⁻¹,0.000101 ± 2.1e-06 s⁻¹,0.000282 ± 6.2e-06 s⁻¹,0.000335 ± 6.6e-06 s⁻¹,
G41U,0.00376 ± 0.0013 s⁻¹,,0.000391 ± 6.3e-05 s⁻¹,0.00102 ± 9.3e-05 s⁻¹,0.00263 ± 0.00015 s⁻¹,,0.000171 ± 1.9e-05 s⁻¹
U45G,0.011 ± 0.0012 s⁻¹,2240 ± 300 µM,0.000679 ± 2.9e-05 s⁻¹,0.00227 ± 5.8e-05 s⁻¹,0.00566 ± 0.00017 s⁻¹,0.00968 ± 0.00036 s⁻¹,0.000203 ± 3.8e-06 s⁻¹
U45A,0.0731 ± 0.026 s⁻¹,1680 ± 700 µM,0.00532 ± 0.00022 s⁻¹,0.0167 ± 0.00063 s⁻¹,0.0529 ± 0.0042 s⁻¹,0.0751 ± 0.0041 s⁻¹,0.00192 ± 4e-05 s⁻¹
U45C,0.00494 ± 0.00052 s⁻¹,2740 ± 390 µM,0.000232 ± 9.5e-06 s⁻¹,0.000897 ± 2.2e-05 s⁻¹,0.00247 ± 6.8e-05 s⁻¹,0.00385 ± 9.4e-05 s⁻¹,7.81e-05 ± 1.8e-06 s⁻¹
A42G G43A,0.000155 ± 2.1e-05 s⁻¹,1440 ± 500 µM,,5.32e-05 ± 1.5e-05 s⁻¹,8.7e-05 ± 2.3e-05 s⁻¹,0.000143 ± 2.8e-05 s⁻¹,< 1e-05 s⁻¹
A42G U46A,0.00476 ± 0.00084 s⁻¹,1200 ± 320 µM,0.000896 ± 0.00031 s⁻¹,0.00178 ± 0.00057 s⁻¹,,0.00455 ± 0.00072 s⁻¹,0.000149 ± 2.5e-05 s⁻¹
A42G U54G,0.0467 ± 0.012 s⁻¹,2110 ± 650 µM,0.00287 ± 0.00056 s⁻¹,0.0108 ± 0.0031 s⁻¹,0.0229 ± 0.0093 s⁻¹,0.0409 ± 0.011 s⁻¹,0.00111 ± 0.00022 s⁻¹
A42G U54A,0.0214 ± 0.0099 s⁻¹,,0.00396 ± 0.0011 s⁻¹,0.029 ± 0.0057 s⁻¹,,0.0172 ± 0.004 s⁻¹,0.000967 ± 0.00013 s⁻¹
G44A U56G,0.000224 ± 3.2e-05 s⁻¹,,,5.52e-05 ± 2.2e-05 s⁻¹,0.000188 ± 3.9e-05 s⁻¹,0.00019 ± 2.1e-05 s⁻¹,
A42G G66A U69A,0.0145 ± 0.0037 s⁻¹,1590 ± 490 µM,,,,0.0125 ± 0.0052 s⁻¹,0.000356 ± 0.0001 s⁻¹
G41U U56A C70A,0.0279 ± 0.012 s⁻¹,,0.00226 ± 0.00043 s⁻¹,0.0096 ± 0.0018 s⁻¹,0.033 ± 0.0088 s⁻¹,0.0192 ± 0.0059 s⁻¹,
U45G U55C,0.00551 ± 0.00089 s⁻¹,2350 ± 590 µM,0.000297 ± 5.2e-05 s⁻¹,0.00131 ± 0.0002 s⁻¹,0.00273 ± 0.00035 s⁻¹,0.00455 ± 0.00058 s⁻¹,0.000129 ± 2.6e-05 s⁻¹
A42G C50A,4.52e-05 ± 2.6e-06 s⁻¹,7070 ± 920 µM,,,,,
A42G C50U,0.000135 ± 1.2e-05 s⁻¹,5810 ± 1200 µM,,,3.96e-05 ± 1.9e-05 s⁻¹,8.57e-05 ± 1.3e-05 s⁻¹,
G43U C70U,2.12e-05 ± 3.3e-06 s⁻¹,,< 1e-05 s⁻¹,,2.17e-05 ± 8.6e-06 s⁻¹,,< 1e-05 s⁻¹
U45A G59A,0.00059 ± 0.00018 s⁻¹,,,2.71e-05 ± 1e-05 s⁻¹,6.8e-05 ± 3.3e-05 s⁻¹,0.000234 ± 3.9e-05 s⁻¹,< 1e-05 s⁻¹
G41U A53G,0.00129 ± 0.00028 s⁻¹,291 ± 120 µM,0.000362 ± 7.8e-05 s⁻¹,0.00133 ± 0.0002 s⁻¹,0.000959 ± 0.00015 s⁻¹,0.00153 ± 0.00029 s⁻¹,0.000167 ± 2.7e-05 s⁻¹
A42U U46A,0.000165 ± 3.2e-05 s⁻¹,4410 ± 1900 µM,,,7.32e-05 ± 1.7e-05 s⁻¹,0.000112 ± 1.7e-05 s⁻¹,
A42U U46G,5.79e-05 ± 3.4e-06 s⁻¹,901 ± 260 µM,,2.81e-05 ± 1.4e-05 s⁻¹,3.86e-05 ± 1.2e-05 s⁻¹,5.41e-05 ± 8.3e-06 s⁻¹,
U46C C71A,0.000545 ± 4.7e-05 s⁻¹,811 ± 130 µM,8.19e-05 ± 2.2e-05 s⁻¹,0.000252 ± 4.5e-05 s⁻¹,0.00045 ± 9.1e-05 s⁻¹,0.000453 ± 0.00011 s⁻¹,
U45A U69G,6.38e-05 ± 2e-05 s⁻¹,,,5.46e-05 ± 1.9e-05 s⁻¹,0.000109 ± 3.2e-05 s⁻¹,,
U45G U46G,0.00603 ± 0.0024 s⁻¹,,0.000206 ± 5.5e-05 s⁻¹,0.000961 ± 0.00019 s⁻¹,0.00158 ± 0.00036 s⁻¹,0.00523 ± 0.00084 s⁻¹,7.27e-05 ± 1.4e-05 s⁻¹
U45G U46C,0.0148 ± 0.0013 s⁻¹,3530 ± 440 µM,0.00068 ± 0.00013 s⁻¹,0.0019 ± 0.00046 s⁻¹,0.00634 ± 0.001 s⁻¹,0.011 ± 0.0013 s⁻¹,0.000173 ± 2.8e-05 s⁻¹
A42U A48U A64U C68U,< 1e-05 s⁻¹,11.3 ± 3.5 µM,,,< 1e-05 s⁻¹,< 1e-05 s⁻¹,
U45G A48U,0.000351 ± 8.1e-05 s⁻¹,3040 ± 1200 µM,,5.51e-05 ± 1.4e-05 s⁻¹,0.000209 ± 4.5e-05 s⁻¹,0.000246 ± 5.7e-05 s⁻¹,
G43U A52G,< 1e-05 s⁻¹,5960 ± 590 µM,< 1e-05 s⁻¹,< 1e-05 s⁻¹,,,< 1e-05 s⁻¹
